# According to patent US10125184B2, “Apolipoprotein E polypeptides and their use” (priority 2011, dated 2018):
# Like-named read-outs stand apart in the source and are kept apart here.
# Columns and labels:
# [1] = DMPC binding assay (turbidity OD490nm)
# Description: FIGS. 3A-3C. Both hEP and mEP mediate plasma cholesterol clearance through hepatic lipoprotein receptors. (A) DMPC binding assay was conducted as described in the examples section. The turbidity of DMPC vesicle solution was monitored by OD490 nm. The curves were representative of two independent experiments. (B) HEK293T cells were loaded with DiI-LDL (5 μg/ml) along with apoE peptide-DMPC particles which competed with DiI-LDL for LDLR binding and LDLR-mediated endocytosis (for 30 min) n=3 for each group. (C) Each peptide (100 μg in 100 μl PBS) was retro-orbitally injected into 6-month-old apoE−/− mice (two mice each group). PBS (100 μl) was injected into two other mice as control. Before (set as 0 min time point) and 5 min, 30 min, 1 h, 2 h, and 4 h after the peptide or PBS injection, 30 μl blood samples were drawn for plasma cholesterol measurement using total Cholesterol Reagent Kit (Raichem, San Diego, Calif.).
# 1,2-dimyristoyl-sn-glycero-3-phosphatidylcholine (DMPC) (Avanti Polar Lipids Inc., Alabaster, Ala.) was dissolved in chloroform: methanol (3:1, v/v). It was dried thoroughly under a stream of N2. The dried lipid sample was dispersed in pre-warmed buffer (10 mM Tris-HCl, pH7.2; 150 mM NaCl; 0.5 mM EDTA) to final lipid concentration of 10 mg/ml, vortexed for 1 min, and sonicated 10 times at lowest power for 10 seconds at 24° C. The peptide solution, lipid solution and buffer were all maintained at 23.9° C. One milliliter buffer and 250 μg (25 μl lipid solution) were added in a quartz cuvette, and let equilibrate for 10 min, resulting in a turbid DMPC vesicle solution. Peptide solution (250 μg in 100 μl) was then added to turbid solution in the cuvette, the solution was mixed immediately, and the change of turbidity was monitored by OD at 490 nm as a function of time. If the peptide binds to DMPC vesicles, the large DMPC vesicles will be transformed into smaller DMPC-peptide particles, reducing the turbidity of the solution.
# JFH-1 HCVcc-Luc = tested on: JFH-1 HCVcc-Luc
# Description: FIGS. 1A-1C. […] (A) Schematic illustration of apoE protein domains and the amino acid sequences of hEP and mEP peptides. The amino acid sequences shown are hEP-1 (SEQ ID NO: 6) and mEP (SEQ ID NO: 20). […] Huh7.5.1 cells were infected with JFH-1 HCVcc-Luc (MOI˜0.5) in the presence of hEP or mEP for 2 hours. After removal of virus and peptides, cells were further incubated for 48 hours prior to luciferase assay. Data are presented as % inhibition relative to control infections in which cells were treated with DMSO (0%). Results are expressed as mean±standard deviation (s.d.) (n=3). (C). Huh7.5.1 cells were treated with hEP or DMSO at indicated doses for 48 hours. The effect of hEP on cell viability was measured by a CellTiter Glo assay kit.
# FIGS. 7A-7E. Mapping the anti-viral activity of hEP. In (A) and (B), HCVcc-luc was first mixed with indicated peptides (20 μg/ml, 2.7 μM) and then incubated with Huh7.5.1 cells for two hours at 37° C. to initiate infection. After additional 48 hours incubation, luciferase activity was measured. Results are presented as fold of inhibition relative to infections containing DMSO (n=5, mean±sd). (C) 20 μg of hEP-2 or hEP-2/ΔCys were resuspended in PBS and kept at room temperature for 30 minutes. Peptides were then mixed with 2×SDS-sample buffer without DTT and boiled for 5 minutes. Alternatively, samples were simply left unboiled or mixed with sample buffer containing DTT (2 mM). Peptide samples were then subjected to electrophoresis on a 16% tricine non-reducing gel (Invitrogen). […] (D) and (E) Mass spectrometric analysis of hEP-2 or hEP-2/ΔCys.
# Detailed procedures involving the production and use of HCVpp and HCVcc have been published elsewhere (Liu et al., J Virol 2009; 83:2011-2014; Yang et al., Hepatology 2008; 48:1396-1403; Yang et al., J Biol Chem 2008; 283:8643-8653). Production procedure of HCVcc expressing firefly luciferase that was inserted between NS5A and NS5B (JFH-1 strain) was described elsewhere (Liu et al., Virology 2010; 407:160-170). Unless otherwise indicated, viruses were typically added to cells for two hours before removal. Cells were incubated for additional 48 hours followed by luciferase assay. When purification was needed, HCVcc were subjected to ultracentrifugation (SW41, 28,000×g) for 4 hours through a 20% sucrose cushion. Deidentified human sera, collected from five patients containing high-titer HCV (HCVser), were obtained.
# Huh7.5.1 cells = assay: Cytotoxicity/cell viability assay (CellTiter-Glo); assay type: cell-based; conditions: 48 hours; hEP up to 100 μg/ml (~14 μM)
# Description: FIGS. 1A-1C. A human apoE derived peptide (hEP) suppresses HCV infection. (A) Schematic illustration of apoE protein domains and the amino acid sequences of hEP and mEP peptides. The amino acid sequences shown are hEP-1 (SEQ ID NO: 6) and mEP (SEQ ID NO: 20). (B) Dose dependent inhibition of HCVcc infection by hEP. Huh7.5.1 cells were infected with JFH-1 HCVcc-Luc (MOI˜0.5) in the presence of hEP or mEP for 2 hours. After removal of virus and peptides, cells were further incubated for 48 hours prior to luciferase assay. Data are presented as % inhibition relative to control infections in which cells were treated with DMSO (0%). Results are expressed as mean±standard deviation (s.d.) (n=3). (C). Huh7.5.1 cells were treated with hEP or DMSO at indicated doses for 48 hours. The effect of hEP on cell viability was measured by a CellTiter Glo assay kit.
# Huh7.5.1 cells (10^5 per well) were treated with hEP or DMSO at various concentrations for 48 hours in 24-well plates. The numbers of viable cells in culture were determined using the CELLTITER-GLO® Cell Viability Luminescent Assay kit according to the manufacturer's instruction (Promega).
Molecule,"DMPC binding ([1]; reduction (percentage) of turbidity (OD490nm) of DMPC solution, plateau 10 minutes after addition of peptide)",IC50 (JFH-1 HCVcc-Luc; HCVcc infection of Huh7.5.1 cells) [nM],"Binding to DMPC (in words) ([1]; DMPC vesicles, turbidity)",Cytotoxicity (cell viability) (Huh7.5.1 cells),"IC50 (JFH-1 HCVcc-Luc; read-out: 50% inhibitory concentration (IC50) of HCVcc infection, JFH-1 HCVcc-Luc MOI~0.5, peptide present 2 hours, luciferase after 48 hours) [nM]",Suppression of HCVcc infection at various MOIs (JFH-1 HCVcc-Luc; various MOIs)
EELRVRLASHLRKLRKRLLRDADDLQKRLAVYEEQAQQIRLQAEAFQARLKSWFEPLVEDM [hEP-1],"+ (+, reduction 25-50%)",670,,,,
hEP: human apoE dual-domain peptide: helix 4 of N-terminal domain plus major lipid-binding region; expressed in bacteria (protein) peptide: EELRVRLASHLRKLRKRLLRDADDLQKRLAVYEEQAQQIRLQAEAFQARLKSWFEPLVEDM,,,efficiently bound,no cytotoxicity,670,robustly suppressed
